Experimental data from patent publication US20090093002A1.

Target: biotinylated complete Aβ1-42 peptide (Bachem) (UniProt P05067)
Assay: ELISA on biotinylated complete Aβ1-42 peptide

biotinylated complete Aβ1-42 peptide (Bachem), sequence (P05067 672-713 limits assumed): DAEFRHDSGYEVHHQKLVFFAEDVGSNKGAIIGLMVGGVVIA

- O.D: 0.196 O.D
Substance: Control IgG (antibody)
